Target: the molecule itself
Experiment: SEC

B1: Csy3, MBP/6xHis-tagged (natural protein, Pseudomonas aeruginosa, UniProt Q02MM1 1-342, looked up)
chain: MSKPILSTASVLAFERKLDPSDALMSAGAWAQRDASQEWPAVTVREKSVRGTISNRLKTKDRDPAKLDASIQSPNLQTVDVANLPSDADTLKVRFTLRVLGGAGTPSACNDAAYRDKLLQTVATYVNDQGFAELARRYAHNLANARFLWRNRVGAEAVEVRINHIRQGEVARAWRFDALAIGLRDFKADAELDALAELIASGLSGSGHVLLEVVAFARIGDGQEVFPSQELILDKGDKKGQKSKTLYSVRDAAAIHSQKIGNALRTIDTWYPDEDGLGPIAVEPYGSVTSQGKAYRQPKQKLDFYTLLDNWVLRDEAPAVEQQHYVIANLIRGGVFGEAEEK
- binding result: binds
